This series deals with HIV-1 reverse transcriptase (HIV-RT) (HIV-1, UniProt P04585;P04585 P04585:588-1147,P04585:588-1027). Put plainly: footprint; chemical modification protection and modification interference; 200 mM KOAc, 50 mM Tris-HCl pH 7.7, 37 C. The settings on record: pseudoknot. Here is the method: Affinity assays with labeled RNA and HIV-RT. Model RNAs for refinement of the 5' and 3' boundaries and for determination of the effect of substitutions were labeled during transcription with T7 RNA polymerase as described in Tuerk et al. (1990) except that a-32P-ATP was used, in reactions of 0.5 mM C,G, and UTP with 0.05 mM ATP. Synthetic oligonucleotides and phosphatased transcripts (as in Tuerk et al., 1990) were kinased as described in Gauss et al. (1987). All RNA-protein binding reactions were done in a "binding buffer" of 200 mM KOAc, 50 mM Tris-HCl pH 7.7, 10 mM dithiothreitol with exceptions noted for chemical protection experiments below. RNA and protein dilutions were mixed and stored on ice for 30 minutes then transferred to 37° C. for 5 minutes. […] Each reaction was suctioned through a pre-wet (with binding buffer) nitrocellulose filter and rinsed with 3 mls of binding buffer after which it was dried and counted for assays or subjected to elution and assayed for chemical modification. In comparisons of binding affinity, results were plotted and the protein concentration at which half-maximal binding occurred (the approximate Kd in conditions of protein excess) was determined graphically.
Selection of modified RNAs by HIV-RT. […] The extent of modification interference by ENU was determined by densitometric scanning of films using an LKB laser densitomer.

B1: lengthened ligand B RNA (ssRNA)
RNA: GGUCCGAAGUGCAACGGGAAAAUGCACUAUGAAAGAAUUUUAUAUCUCUAUUGAAAC
For the molecule B1, the binding result is recorded as “binds”.

The values are drawn from US5595877, “Methods of producing nucleic acid ligands” (NeXstar Pharmaceuticals, Inc.).
